Data taken from patent US20210214436A1 (DRAGONFLY THERAPEUTICS, published 2021).
Each block holds one binder with its values, some of them ahead of it.

Target: T1, BCMA expressed on myeloma cells (MM.1R, KMS12-PE) (human, UniProt Q02223 1-184)
T1 construct: Human multiple myeloma cell lines expressing BCMA; also called surface BCMA; MM.1R myeloma cells
T1 sequence: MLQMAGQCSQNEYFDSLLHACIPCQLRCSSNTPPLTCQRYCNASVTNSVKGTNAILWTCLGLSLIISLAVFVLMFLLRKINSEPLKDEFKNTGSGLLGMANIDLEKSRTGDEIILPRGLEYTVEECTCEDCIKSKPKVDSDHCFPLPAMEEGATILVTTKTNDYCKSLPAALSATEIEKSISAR
Test: flow cytometry on MM.1R cells
Method: F4-TriNKETs were diluted, and were incubated with MM.1R cells. […] Cells were analyzed by flow cytometry, binding MFI to cell expressed BCMA was normalized to secondary antibody controls to obtain fold over background values.

binding result: binds
B1: A49-F4-TriNKET-BCMA (bispecific antibody, V domains shown)
VH 1: EVQLLESGGGLVQPGGSLRLSCAASGFTFSDNAMGWVRQAPGKGLEWVSAISGPGSSTYYADSVKGRFTISRDNSKNTLYLQMNSLRAEDTAVYYCAKVLGWFDYWGQGTLVTVSS
VL 1: EIVLTQSPGTLSLSPGERATLSCRASQSVSDEYLSWYQQKPGQAPRLLIHSASTRATGIPDRFSGSGSGTDFTLAISRLEPEDFAVYYCQQYGYPPDFTFGQGTKVEIK
VH 2: EVQLVESGGGLVKPGGSLRLSCAASGFTFSSYSMNWVRQAPGKGLEWVSSISSSSSYIYYADSVKGRFTISRDNAKNSLYLQMNSLRAEDTAVYYCARGAPMGAAAGWFDPWGQGTLVTVSS
VL 2: DIQMTQSPSSVSASVGDRVTITCRASQGISSWLAWYQQKPGKAPKLLIYAASSLQSGVPSRFSGSGSGTDFTLTISSLQPEDFATYYCQQGVSFPRTFGGGTKVEIK
notes: Only variable domains can be tied to the molecule

binding result: binds
B2: BCMA monoclonal antibody (EM-901) (antibody, V domains shown)
VH: B1 VH 1
VL: B1 VL 1
